From PMC11969024, “Development of chemokine network inhibitors using combinatorial saturation mutagenesis” (Communications Biology, 2025)

Assays:
activated T-cells (ATC) = assay: Chemokine dose-response, activated T-cell (ATC) migration; type: cell-based, human; conditions: mean of biological replicates (3-6)
Procedure: Cell lines were confirmed mycoplasma free by monthly testing using a MycoAlert^TM kit (LT07-118, Lonza) following the manufacturer’s instructions. THP1 cells: THP1 cells (ECACC 88081201, a human monocyte leukemia cell line[51]) were obtained from ECACC and were cultured in T175 flasks at 0.3-1 × 10^6 cells/mL in Roswell Park Memorial Institute (RPMI) 1640 medium (R0883, Sigma) with 10% FBS (F9665, Sigma) and 5mM L-glutamine (G7513, Sigma), 37 °C, 5% CO2. J:CXCR1 cells: The J:CXCR1 cell line was cultured in the same manner as THP1 cells at 0.15-1 × 10^6 cells per mL[37]. Activated T-cells: T-cells were isolated, activated and expanded as follows. […] The final pellet was resuspended in 1 mL of MACS buffer per 5 mL of initial blood volume and counted using cell size FSC-H/SSC-H parameters with gate settings previously defined by immunostaining (see below). […]
Cell counts were determined using an ATTUNE NxT Flow Cytometer with Cytkick autosampler (ThermoFisher), based on cell size parameters FSC-H/SSC-H, with previously defined gate settings. FSC-H/SSC-H gate settings for primary white blood cells from buffy coats were determined using flow cytometry to establish the granulocyte, monocyte and lymphocyte populations (Supplementary Fig. 13). […]

THP1 cells = assay: Chemokine dose-response, THP1 cell migration; type: cell-based, human; conditions: mean of biological replicates (2-7); for Mean pEC80: 3-parameter log-logistic fit, maximum fixed at 100%
Procedure: Cell lines were confirmed mycoplasma free by monthly testing using a MycoAlert^TM kit (LT07-118, Lonza) following the manufacturer’s instructions. THP1 cells: THP1 cells (ECACC 88081201, a human monocyte leukemia cell line[51]) were obtained from ECACC and were cultured in T175 flasks at 0.3-1 × 10^6 cells/mL in Roswell Park Memorial Institute (RPMI) 1640 medium (R0883, Sigma) with 10% FBS (F9665, Sigma) and 5mM L-glutamine (G7513, Sigma), 37 °C, 5% CO2. J:CXCR1 cells: The J:CXCR1 cell line was cultured in the same manner as THP1 cells at 0.15-1 × 10^6 cells per mL[37]. Activated T-cells: T-cells were isolated, activated and expanded as follows. Briefly, density gradient centrifugation using Lymphoprep^TM density gradient medium (07801, […] Technologies) and a SepMate^TM isolation tube (85450, […] Technologies) was used to isolate peripheral blood mononuclear cells from human leukocyte cones. Two rounds of purification using a human CD8 + T-cell isolation kit (480011, BioLegend) were used to isolate CD8 + T-cells from peripheral blood mononuclear cells. Activation of CD8 + T-cells was performed in ImmunoCult^TM-XF T-cell expansion medium (10982, […] Technologies) with an anti-CD3/anti-CD28 T-cell activator at 25 μl/ml (10991, […] Technologies), supplemented with 10 ng/ml recombinant human IL-2 (200-02, PeproTech) with 1% penicillin/streptomycin. T-cells were passaged every 2–3 days in TexMACS medium (130-097-196, Miltenyi Biotec), supplemented with 10 ng/ml human IL-2 (200-05-250, Peprotech) and incubated at 37 °C in 5% CO2. CD8 + T-cells were frozen at day 10-13 after initial activation, at 20×10^6 cell/ml in TexMACS medium supplemented with 10% DMSO (D2650, Sigma) in liquid nitrogen. Activated CD8^+ T-cells were recovered in TexMACs medium at 0.3 × 10^6 cell/ml and incubated at 37 °C in 5% CO2, 24 h prior to use. For buffy coat experiments a mixture of primary human monocytes, granulocytes and lymphocytes was isolated from human buffy coat. Briefly, RBCs were sedimented in HetaSep (07806, […] Technologies) with 1 mL of HetaSep per 5 mL of blood for 15 min at 37 °C. The buffy coat layer was collected from the top and washed in 50 ml MACS buffer (PBS (P4417, Sigma), 0.5% BSA (A7030, Sigma), 0.075% EDTA (E5134, Sigma), pH 7.2), by centrifugation at 2000 g for 10 min at room temperature. The pellet was resuspended in 10 mL of 1x RBC lysis solution (130-094-183, Miltenyi Biotec) and lysed for 10 min at room temperature. The cells were then washed in MACS buffer twice as above. The final pellet was resuspended in 1 mL of MACS buffer per 5 mL of initial blood volume and counted using cell size FSC-H/SSC-H parameters with gate settings previously defined by immunostaining (see below). The leukocytes were then resuspended in assay buffer for cell migration and used within 30 min of isolation.
Cell counts were determined using an ATTUNE NxT Flow Cytometer with Cytkick autosampler (ThermoFisher), based on cell size parameters FSC-H/SSC-H, with previously defined gate settings. FSC-H/SSC-H gate settings for primary white blood cells from buffy coats were determined using flow cytometry to establish the granulocyte, monocyte and lymphocyte populations (Supplementary Fig. 13). Briefly, cells were labelled with anti-CD3 (Miltenyi Biotec, 130-113-135) to identify the T cell population, anti-CD14 (Miltenyi Biotec, 130-110-578) to identify the monocyte population, and with anti-CD16 (Miltenyi Biotec, 130-113-951) to identify the granulocyte population. Negative control cells were labelled with anti-human IgG1 (Miltenyi Biotec, 130-113-434). All antibodies were allophycocyanin (APC) conjugated. 100,000 white blood cells were added to Eppendorf tubes and centrifuged at 300 g for 3 min. The supernatant was discarded, and the cells resuspended in 98 µL of MACS buffer (1× PBS, 2 mM EDTA and 0.5% BSA, sterile filtered). 2 µl of antibody was added to the cells. […]

Molecule	Mean pEC50 (activated T-cells (ATC))	Mean pEC50 (THP1 cells)	Mean pEC80 (activated T-cells (ATC))	Mean pEC80 (THP1 cells)
CCL8: human chemokine, Peprotech 300-15 (protein, UniProt P80075 24-99, looked up) C-C motif chemokine 8: QPDSVSIPITCCFNVINRKIPIQRLESYTRITNIQCPKEAVIFKTKRGKEVCADPKERWVRDSMKHLDQIFQNLKP		8.19 [M]		7.84 [M]
CCL14: human chemokine, Peprotech 300-38B (protein, UniProt Q16627 20-93, looked up) C-C motif chemokine 14: TKTESSSRGPYHPSECCFTYTTYKIPRQRIMDYYETNSQCSKPGIVFITKRGHSVCTNPSDKWVQDYIKDMKEN		9.61 [M]		9.23 [M]

More lines, main results first:

Mean pEC50 (activated T-cells (ATC))	Mean pEC50 (THP1 cells)	Molecule	Mean pEC80 (activated T-cells (ATC))	Mean pEC80 (THP1 cells)
7.98 [M]		CCL21: human chemokine, Peprotech 300-35A (protein) SDGGAQDCCLKYSQRKIPAKVVRSYRKQEPSLGCSIPAILFLPRKRSQAELCADPKELWVQQLMQHLDKTPSPQKPAQGCRKDRGASKTGKKGKGSKGCKRTERSQTPKGP	7.42 [M]	
	8.97 [M]	CCL23: human chemokine, Biolegend 587002 (protein, UniProt P55773 22-120, looked up) C-C motif chemokine 23: RVTKDAETEFMMSKLPLENPVLLDRFHATSADCCISYTPRSIPCSLLESYFETNSECSKPGVIFLTKKGRRFCANPSDKQVQVCMRMLKLDTRIKTRKN		8.66 [M]
